In article PMC8420576 (The EMBO Journal, 2021):

Molecular target: T1, SARS-CoV-2 Spike RBD (residues 334–527), C-terminal Avi-His6 tag, biotinylated (SARS-CoV-2, reference (Wuhan-Hu-1) …, UniProt P0DTC2, biotin on the Avi-tag)
T1 construct: also called biotinylated RBD; SARS‐CoV‐2 RBD‐loaded sensors
Assay: BLI
Conditions: both partners purified

B1: VHH antibody Re9F06 (VHH)
VHH: QVQLVESGGGLVQAGGSLRLSCAASGRTFSNDALGWFRQAPRKEREFVAAINWNSGTYYADSVKGRFTISRDNAKNTVYLQMNSLKPEDTAVYSCAAASDYGLPREDFLYDYWGQGTQVTVSS
notes: also called fold-promoter Re9F06; fold-promoting nanobody Re9F06
B1 gave a Kd of 4 nM.
